Measurements from publication PMC3285688, “Active Site Mutations Change the Cleavage Specificity of Neprilysin” (PLoS ONE, 2012).
“And” between values parts separate entries of the source, which are not always exact repeats. Equal values may be shown once.

Key:
NEP [1] = assay: Degradation of peptide substrates by NEP: extent and cleavage sites (HPLC, mass spectrometry); conditions: for Cleavage site (bond cleaved): NEP and mutants, 20 mM MES pH 6.5, 37°C
Procedure: Degradation of insulin B chain by wild-type NEP was analyzed by reverse-phase HPLC following the appearance of each product as a function of time, Figure 1 . Product peaks were collected and subsequently analyzed by mass spectrometry to determine their identities. […] Based on the order of appearance of each peak, it is likely that insulin B chain1–10, insulin B chain1–11, insulin B chain1–14 and its partner peak insulin B chain15–30, insulin B chain17–30, and insulin B chain24–30 are all products of primary cleavages. These products appear at the first time point when approximately 15% hydrolysis of insulin B chain had occurred (30 minutes). At 30% hydrolysis (90 min.), peaks corresponding to insulin B chain1–5 and insulin B chain17–24 are observed. Peaks for insulin B chain1–16 and insulin B chain15–23 become apparent at >30% insulin B chain hydrolysis. […] It is likely that these are transient products that are subsequently cleaved contributing to other product peaks (i.e. insulin B chain24–30).
To further study the effect of mutations on cleavage site specificity, time course assays were also performed for the hydrolysis of the physiological substrate Aß1–40. Like the analysis of insulin B chain, a time course assay was first done with NEP to identify cleavage products, Figure 3 and Table 6 . After 15% hydrolysis of Aß1–40 (150 min.) by NEP there were six discernable product peaks corresponding to Aß1–16, Aß1–17, Aß10–17, Aß20–28, Aß20–29, and Aß20–30. […]
Cleavage of physiological peptides was measured via reverse phase high performance liquid chromatography (HPLC) following incubation of the purified NEP or its mutants with 15 µM insulin B chain (Sigma Aldrich), 24 µM Aß1–40 (Anaspec), or 64 µM leu-ENK (Sigma) in 100 µL of 20 mM MES, pH 6.5, at 37°C. […] Peptides and hydrolysis products were detected at 214 nm and quantified by measuring peak areas. Peptides obtained from HPLC were analyzed on an Applied Biosystems 4800 MALDI TOF/TOF Proteomics Analyzer at the University of Kentucky Proteomics core. […]

[2] = system: NEP and each of the studied mutants; assay: Inhibition of Glut-Ala-Ala-Phe-MNA hydrolysis by NEP inhibitors; type: biochemical, human
Procedure: Reactions of 400 µl contained 100 µM Glut-Ala-Ala-Phe-MNA, 1 µg of aminopeptidase and 15 to 100 ng of NEP or mutant NEP depending on their activity in 20 mM MES buffer, pH 6.5. Activity was monitored with a Spectra Max Gemini XS plate reader using an excitation wavelength of 340 nm and an emission wavelength of 425 nm.

NEP [3] = conditions: cited from earlier work
Description: Two other studies have identified NEP cleavage sites within Aß1–40 [25], [26].

[4] = Hydrolysis of synthetic substrate Glut-Ala-Ala-Phe-MNA by NEP and mutants (fluorogenic); type: biochemical; conditions: 37°C, 20 mM MES buffer, pH 6.5
insulin B chain [5] = assay: Insulin B chain as alternate substrate (competitive) inhibitor of Glut-Ala-Ala-Phe-MNA hydrolysis (Dixon plot); type: biochemical; conditions: insulin B chain 1 to 40 µM as competitive inhibitor of Glut-Ala-Ala-Phe-MNA hydrolysis by the enzyme form, 37°C, 20 mM MES, pH 6.5, ID50 converted to Ki
leu-ENK [6] = assay: Rate of leu-ENK hydrolysis (HPLC); type: biochemical; conditions: 64 µM leu-ENK, 37°C, 20 mM MES buffer, pH 6.5; disappearance of substrate by HPLC; at least triplicate
insulin B chain [7] = assay: Rate of insulin B chain hydrolysis (HPLC); type: biochemical; conditions: 15 µM insulin B chain, 37°C, 20 mM MES buffer, pH 6.5; disappearance of substrate by HPLC; at least triplicate
Aß1–40 [8] = assay: Rate of Aß1–40 hydrolysis (HPLC); type: biochemical; conditions: 24 µM Aß1–40, 37°C, 20 mM MES buffer, pH 6.5; disappearance of substrate by HPLC; at least triplicate
leu-ENK [9] = assay: Dual substrate assay: leu-ENK hydrolysis in presence of insulin B chain; type: biochemical; conditions: 15 µM insulin B chain and 64 µM leu-ENK together, 37°C, 20 mM MES buffer, pH 6.5
insulin B chain [10] = assay: Dual substrate assay: insulin B chain hydrolysis in presence of leu-ENK; type: biochemical; conditions: 15 µM insulin B chain and 64 µM leu-ENK together, 37°C, 20 mM MES buffer, pH 6.5
[11] = system: leu-ENK and insulin B chain; assay: Dual substrate assay: substrate preference leu-ENK versus insulin B chain; type: biochemical; conditions: ratio of rates, 15 µM insulin B chain and 64 µM leu-ENK together
insulin B chain [12] = assay: Time course of product peak accumulation from insulin B chain; type: biochemical; conditions: 15 µM insulin B chain, 37°C, 20 mM MES, pH 6.5; 0-180 min, HPLC peak area 214 nm, linear phase
Description: As a representative of the NEP^F563 and NEP^S546 mutants, we compared the cleavage profile of NEP^F563L and NEP^S546E to that of NEP using time course experiments, Figure 2 . By adjusting the amount of NEP mutant used, the rate of hydrolysis of insulin B chain by all NEP forms was virtually identical. […] Since rates were based on peak areas measured at 214 nm, which in turn is dependent on both the number of peptide bonds and the number of aromatic residues within a given peptide, only the observed rates of change for a particular peptide product can be compared between enzyme forms. A comparison of the rate of change of different peaks within the same enzyme form or between enzyme forms is not valid under our conditions of analysis.
(§1) Cleavage of physiological peptides was measured via reverse phase high performance liquid chromatography (HPLC) following incubation of the purified NEP or its mutants with 15 µM insulin B chain (Sigma Aldrich), 24 µM Aß1–40 (Anaspec), or 64 µM leu-ENK (Sigma) in 100 µL of 20 mM MES, pH 6.5, at 37°C. Reactions were run in triplicate. HPLC was carried out in a Vydac C4 column using a linear gradient from 0.1% trifluoroacetic acid (TFA) in 95% water, 5% acetonitrile to 0.1% TFA in 50% acetonitrile/water at a flow rate of 1 mL/min. Peptides and hydrolysis products were detected at 214 nm and quantified by measuring peak areas. Peptides obtained from HPLC were analyzed on an Applied Biosystems 4800 MALDI TOF/TOF Proteomics Analyzer at the University of Kentucky Proteomics core. This facility is supported in part by grant P20RR020171 from the NIH/NCRR.

Aß1–40 [13] = assay: Time course of product peak accumulation from Aß1–40; type: biochemical; conditions: 24 µM Aß1–40, 37°C, 20 mM MES, pH 6.5; 0-360 min, HPLC peak area, linear phase
Procedure: Similar to the analysis conducted with insulin B chain, the linear rate of product accumulation was determined for each peak and normalized to the amount of protein in the reaction, Table 7 . Unlike the hydrolysis of insulin B chain, the hydrolysis of Aß1–40, even at the earliest time points, produced products resulting from multiple cleavage events. Out of the 12 identified product peaks, only 3 could be produced by a single cleavage. Rates for all cleavages were calculated and are given in Figure 4, B–D , but only the three putative primary cleavage sites can be compared.
as §1

Aß = conditions: transgenic mice; cited from earlier work
Description: Because of its multiple targets, NEP has been the focus of numerous studies attempting to modulate its activity for therapeutic purposes. One such target is the use of NEP to reduce Aß peptide levels in Alzheimer's disease, since the oligomerization of Aß has been linked to the etiology of this disease. […] In yet another application inhibitors of NEP were developed to block its “enkephalinase” activity to increase the concentra ...

## glutaryl-Ala-Ala-Phe-4-methoxy-2-naphthylamide [Glut-Ala-Ala-Phe-MNA, fluorogenic peptide substrate]
NEP [1]
  Cleavage site (bond cleaved): Ala-Phe peptide bond

## Tyr-Gly-Gly-Phe-Leu [leu-ENK, leucine^5-enkephalin, leucine5-enkephalin (Tyr-Gly-Gly-Phe-Leu), physiological substrate]
NEP [1]
  Cleavage site (bond cleaved): Gly-Phe bond

## CC(C)C[C@H](NP(=O)(O)O[C@@H]1O[C@@H](C)[C@H](O)[C@@H](O)[C@H]1O)C(=O)N[C@@H](Cc1c[nH]c2ccccc12)C(=O)O [phosphoramidon]
[2]; inhibitor at 100 µM
  Inhibition of Glut-Ala-Ala-Phe-MNA hydrolysis: completely inhibited

## O=C(O)CCNC(=O)[C@H](Cc1ccc(-c2ccccc2)cc1)NCP(=O)(O)O [CGS 24592]
[2]; inhibitor at 10 nM
  Inhibition of Glut-Ala-Ala-Phe-MNA hydrolysis: completely inhibited

## Aß1–40: amyloid beta peptide 1–40, physiological substrate (Anaspec)
NEP [1]
  Additional unreported cleavage sites detected in Aß1–40: E^11-V^12, K^16-L^17, and L^17-V^18
NEP [3]
  Cleavages of Aß1–40 detected by Leissring et al.: Cleavages at K^28-G^29 and G^29-A^30
  Cleavages of Aß1–40 detected in two other studies and the current study: G^9-Y^10, F^19-F^20, and A^30-I^31

B1: NEP: secreted form of human NEP (shNEP) expressed as a C-terminal hexahistidine fusion protein (protein, UniProt P08473 52-750, looked up)
extracellular domain: YDDGICKSSDCIKSAARLIQNMDATTEPCTDFFKYACGGWLKRNVIPETSSRYGNFDILRDELEVVLKDVLQEPKTEDIVAVQKAKALYRSCINESAIDSRGGEPLLKLLPDIYGWPVATENWEQKYGASWTAEKAIAQLNSKYGKKVLINLFVGTDDKNSVNHVIHIDQPRLGLPSRDYYECTGIYKEACTAYVDFMISVARLIRQEERLPIDENQLALEMNKVMELEKEIANATAKPEDRNDPMLLYNKMTLAQIQNNFSLEINGKPFSWLNFTNEIMSTVNISITNEEDVVVYAPEYLTKLKPILTKYSARDLQNLMSWRFIMDLVSSLSRTYKESRNAFRKALYGTTSETATWRRCANYVNGNMENAVGRLYVEAAFAGESKHVVEDLIAQIREVFIQTLDDLTWMDAETKKRAEEKALAIKERIGYPDDIVSNDNKLNNEYLELNYKEDEYFENIIQNLKFSQSKQLKKLREKVDKDEWISGAAVVNAFYSSGRNQIVFPAGILQPPFFSAQQSNSLNYGGIGMVIGHEITHGFDDNGRNFNKDGDLVDWWTQQSASNFKEQSQCMVYQYGNFSWDLAGGQHLNGINTLGENIADNGGLGQAYRAYQNYIKKNGEEKLLPGLDLNHKQLFFLNFAQVWCGTYRPEYAVNSIKTDVHSPGNFRIIGTLQNSAEFSEAFHCRKNSYMNPEKKCRVW
modifications: extracellular domain C-terminal His6 tag
notes: secreted form of human NEP (shNEP) expressed as a C-terminal hexahistidine fusion protein
[4]; 100 µM Glut-Ala-Ala-Phe-MNA, fluorescence ex 340 nm, em 425 nm
  Specific Activity (Glut-Ala-Ala-Phe-MNA cleavage): 45.9 ± 2.5 pmol/min/ng
[4]; Glut-Ala-Ala-Phe-MNA 20 to 500 µM, Michaelis-Menten fit
  Km: 51 ± 11 µM
Insulin B chain [5]
  Ki: 1900 ± 200 nM
leu-ENK [6]
  Rate of hydrolysis of leu-ENK: 1.90 ± 0.23 pmol/min/ng
Insulin B chain [7]
  Rate of hydrolysis of Insulin B Chain: 0.86 ± 0.13 pmol/min/ng
Aß1–40 [8]
  Rate of hydrolysis of Aß1–40: 198 ± 12 fmol/min/ng
leu-ENK [9]
  leu-ENK hydrolysis rate, dual substrate assay: 1.16 ± 0.06 pmol/min/ng
leu-ENK [9]; numbers in parenthesis
  leu-ENK hydrolysis, activity relative to the uninhibited value: 0.61
Insulin B chain [10]
  Insulin B Chain hydrolysis rate, dual substrate assay: 0.20 ± 0.04 pmol/min/ng
Insulin B chain [10]; numbers in parenthesis
  Insulin B Chain hydrolysis, activity relative to the uninhibited value: 0.23
[11]
  Ratio leu-ENK insulin B chain: 6 and 5.8
Insulin B chain [12]
  Rate of accumulation of peak 1–5 (single cleavage H^5-L^6): 59 Δarea/min/ng
  Rate of accumulation of peak 1–10 (single cleavage H^10-L^11): 163 Δarea/min/ng
  Rate of accumulation of peak 1–11 (single cleavage L^11-V^12): 88 Δarea/min/ng
  Rate of accumulation of peak 1–14 (single cleavage A^14-L^15): 167 Δarea/min/ng
  Rate of accumulation of peak 1–16 (single cleavage Y^16-L^17): 31 Δarea/min/ng
  Rate of accumulation of peak 15–23 (two cleavages A^14-L^15, G^23-F^24): 23 Δarea/min/ng
  Rate of accumulation of peak 15–30 (single cleavage A^14-L^15): 135 Δarea/min/ng
  Rate of accumulation of peak 17–24 (two cleavages Y^16-L^17, F^24-F^25): 33 Δarea/min/ng
  Rate of accumulation of peak 17–30 (single cleavage Y^16-L^17): 171 Δarea/min/ng
  Rate of accumulation of peak 24–30 (single cleavage G^23-F^24): 268 Δarea/min/ng
Aß1–40 [13]
  Accumulation rate of peak Aß 1–9 (single cleavage G^9-Y^10): 7 Δarea/min/ng
  Accumulation rate of peak Aß 1–16 (single cleavage K^16-L^17): 22 Δarea/min/ng
  Accumulation rate of peak Aß 1–17 (single cleavage L^17-V^18): 75 Δarea/min/ng
  Accumulation rate of peak Aß 4–9 (dual cleavages A^3-F^4, G^9-Y^10): 10 Δarea/min/ng
  Accumulation rate of peak Aß 4–16 (dual cleavages A^3-F^4, K^16-L^17): 7 Δarea/min/ng
  Accumulation rate of peak Aß 4–17 (dual cleavages A^3-F^4, L^17-V^18): 9 Δarea/min/ng
  Accumulation rate of peak Aß 10–16 (dual cleavages G^9-Y^10, K^16-L^17): 4 Δarea/min/ng
  Accumulation rate of peak Aß 10–17 (dual cleavages G^9-Y^10, L^17-V^18): 18 Δarea/min/ng
  Accumulation rate of peak Aß 12–17 (dual cleavages E^11-V^12, L^17-V^18): 3 Δarea/min/ng
  Accumulation rate of peak Aß 20–28 (dual cleavages F^19-F^20, K^28-G^29): 11 Δarea/min/ng
  Accumulation rate of peak Aß 20–29 (dual cleavages F^19-F^20, G^29-A^30): 16 Δarea/min/ng
  Accumulation rate of peak Aß 20–30 (dual cleavages F^19-F^20, A^30-I^31): 34 Δarea/min/ng
Aß
  Effect of NEP expression on cognitive deficits typically attributed to AD: ameliorates cognitive deficits
  Effect of NEP expression on level of Aß: decreases the level of Aß
